Measured values published in patent publication US20220213227A1 (published 2022).

Target: T1, soluble extracellular region of cynomolgus monkey CD38 antigen fused to a 6-His-tag (UniProt Q5VAN0 45-301)
T1 chain: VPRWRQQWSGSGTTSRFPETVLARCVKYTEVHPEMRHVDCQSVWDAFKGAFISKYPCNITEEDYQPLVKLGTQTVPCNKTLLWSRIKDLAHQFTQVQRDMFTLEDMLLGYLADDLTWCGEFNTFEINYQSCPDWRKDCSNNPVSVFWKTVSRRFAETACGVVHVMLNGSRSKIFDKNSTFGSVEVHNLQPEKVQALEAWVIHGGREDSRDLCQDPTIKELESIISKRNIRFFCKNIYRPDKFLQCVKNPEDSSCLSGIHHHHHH
Assay: SPR

B1: chimeric 9G7 antibody (antibody, V domains shown)
VH: QVTLKESGPGILQPSQTLSLTCSFSGLSLSTSGKGVGWIRQPSGKGLEWLAHIWWDDDKRYNPALKSRLTISKDTSSNQVFLKIASVDTADTATYYCARIELGRSYVMDYWGQGTTVTVSS
VL: DIVMTQSHKFMSTSVGDRVSISCKASQDVITSVAWFQQKPGQSPKLLIYSASYRYTGVPDRFTGSGSGTDFTFTISSVQAEDLAVYYCQQHYTIPLTFGAGTKLELKR
B1 was tested, and the Kd was 1 nM.
